Substrate: CC(=O)C(=O)O
Test: purified protein
Format: biochemical, Phocaeicola vulgatus
Conditions: 250 μM NADH, 100 mM K-phosphate pH 7, 37 °C

B1: D-LDH (BVU_2499) (Phocaeicola vulgatus ATCC 8482) (protein)
chain: AYKIAFYDTKPYDERSFTEANEKFGFDIRYYKGHLNMNNVVLTKGVDVVCIFVNDTADAEVIRAMADNGVKLLALRCAGYNNVDLAATAGKMKVVRVPAYSPYAVAEFTVALMLSLNRKIPRATMRTRDGNFSLHGLMGFDMHGKTAGIIGTGKIAKILIQILRGFGMNVLAYDLYPDYNFAREHQVVYCTLDELYHSSDIISLHCPLTEQTKYLINDYSISKMKDGVMIINTGRGQLIHTNALIEGLKTKKVGYAGLDVYEEEEPYFYEDKSDKIIDDDTLARLLSFNNVIVTSHQAFFTKEAMTNIAHTTLQNVKDFAESRSLVNEVAVGRV
notes: full-length ldh in pASK-IBA5, N-terminal Strep-tag kept (no cleavage told), E. coli DH5alpha, Strep-Tactin purified
  Km: 1400 ± 100 µM

Reference: paper PMC8816746, “Genetic tools for the redirection of the central carbon flow towards the production of lactate in the human gut bacterium Phocaeicola (Bacteroides) vulgatus” (Applied Microbiology and Biotechnology, 2022)
